Substitutions are numbered along the chain they refer to.
B1: A10-1C04 (antibody, human IgG1, lambda, V domains shown)
VH: EVQLLESGGGLVQPGGSLRLSCAASGFTFSDYYMNWVRQAPGKGLEWVSSISRYSSYIYYADSVKGRFTISRDNSKNTLYLQMNSLRAEDTAVYYCARDIGGMDVWGQGTLVTVSS
VL: QSVLTQPPSASGTPGQRVTISCTGSSSNIGAVYDVHWYQQLPGTAPKLLIYRNNQRPSGVPDRFSGSKSGTSASLAISGLRSEDEADYYCQTYDSSRWVFGGGTKLTVLG
notes: Prepared with recombinant CHO cells; constant region said to be preferably human IgG1; also called human IL-33 antibody; human anti-IL-33 monoclonal antibody
B2: A25-2C02 (antibody, human IgG1, lambda, V domains shown)
VH: EVQLLESGGGLVQPGGSLRLSCAASGFTFSNYYMHWVRQAPGKGLEWVSSISARSSYIYYADSVKGRFTISRDNSKNTLYLQMNSLRAEDTAVYYCARLATRNNAFDIWGQGTLVTVSS
VL: QSVLTQPPSASGTPGQRVTISCSGSSSNIGRNAVNWYQQLPGTAPKLLIYASNMRVSGVPDRFSGSKSGTSASLAISGLRSEDEADYYCWAWDDSQKVGVFGGGTKLTVLG
notes: Prepared with recombinant CHO cells; constant region said to be preferably human IgG1; also called A25-2CO2; human IL-33 antibody
B3: A23-1A05 (antibody, human IgG1, lambda, V domains shown)
VH: B2 VH with S56R, I58H, N103H
VL: B2 VL with R31N, N35S, S57I, W90G, V98A, G99L
notes: as for B1
B4: A25-3H04 (antibody, human IgG1, lambda, V domains shown)
VH: B2 VH with N31R, R54Q, Y57H, K65E, N103Q
VL: B2 VL with V56R, W90S, G99V
notes: as for B1
B5: A26-1F02 (antibody, human IgG1, lambda, V domains shown)
VH: B2 VH with I58L, N103H, N104V
VL: B2 VL with R31N, V56R, S57P, W90E, V98A, G99V
notes: as for B1

Molecular target: T1, human IL-33 protein (residue 112 to residue 270) (ATGen, ILC070) (human, UniProt O95760 112-270)
T1 construct: Bought protein (ATGen, ILC070); also called IL-33 (residue 112 to residue 270)
T1 sequence: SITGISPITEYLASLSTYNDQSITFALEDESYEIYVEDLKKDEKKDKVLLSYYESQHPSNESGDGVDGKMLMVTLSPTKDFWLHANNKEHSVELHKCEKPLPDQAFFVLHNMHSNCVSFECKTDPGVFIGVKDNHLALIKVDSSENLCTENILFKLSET
Assay: KinExA
Protocol: Five types of human IL-33 antibodies (A10-1C04, A23-1A05, A25-2CO2, A25-3H04 and A26-1F02) along with mouse sST2-Fc, which is a fusion protein of mouse ST2 and human IgG1 constant region, were prepared with recombinant CHO cells (WO 2015/099175).

Row | Binder | Kd
1 | B1 | 100 pM
2 | B2 | 0.7 pM
3 | B3 | 195 pM
4 | B4 | 7.7 pM
5 | B5 | 5.3 pM
